Test results published in patent US20250277030A1, “ANTI-NAPI2B ANTIBODIES AND METHODS OF USE” (Zymeworks BC Inc., priority 2022, published 2025).

Tests used:
[1] = target: human sodium-dependent phosphate transporter 2B (NaPi2b) (human) (UniProt O95436); assay: flow cytometry competition on HEK293-6e cells expressing human NaPi2b; row antibody unlabeled at 100 µg/mL (the reference of the calculation); competitor: AF647-labeled v23855 at 1 µg/mL
[2] = target: human sodium-dependent phosphate transporter 2B (NaPi2b) (human) (UniProt O95436); assay: flow cytometry competition on HEK293-6e cells expressing human NaPi2b; row antibody unlabeled at 100 µg/mL (the reference of the calculation); competitor: AF647-labeled v18992 (MX35) at 1 µg/mL
[3] = target: human sodium-dependent phosphate transporter 2B (NaPi2b) (human) (UniProt O95436); assay: flow cytometry competition on HEK293-6e cells expressing human NaPi2b; row antibody unlabeled at 100 µg/mL (the reference of the calculation); competitor: AF647-labeled v18993 (lifastuzumab) at 1 µg/mL

Measured: % inhibition vs. irrelevant mAb

Chain of human sodium-dependent phosphate transporter 2B (NaPi2b) (human) (O95436 whole entry): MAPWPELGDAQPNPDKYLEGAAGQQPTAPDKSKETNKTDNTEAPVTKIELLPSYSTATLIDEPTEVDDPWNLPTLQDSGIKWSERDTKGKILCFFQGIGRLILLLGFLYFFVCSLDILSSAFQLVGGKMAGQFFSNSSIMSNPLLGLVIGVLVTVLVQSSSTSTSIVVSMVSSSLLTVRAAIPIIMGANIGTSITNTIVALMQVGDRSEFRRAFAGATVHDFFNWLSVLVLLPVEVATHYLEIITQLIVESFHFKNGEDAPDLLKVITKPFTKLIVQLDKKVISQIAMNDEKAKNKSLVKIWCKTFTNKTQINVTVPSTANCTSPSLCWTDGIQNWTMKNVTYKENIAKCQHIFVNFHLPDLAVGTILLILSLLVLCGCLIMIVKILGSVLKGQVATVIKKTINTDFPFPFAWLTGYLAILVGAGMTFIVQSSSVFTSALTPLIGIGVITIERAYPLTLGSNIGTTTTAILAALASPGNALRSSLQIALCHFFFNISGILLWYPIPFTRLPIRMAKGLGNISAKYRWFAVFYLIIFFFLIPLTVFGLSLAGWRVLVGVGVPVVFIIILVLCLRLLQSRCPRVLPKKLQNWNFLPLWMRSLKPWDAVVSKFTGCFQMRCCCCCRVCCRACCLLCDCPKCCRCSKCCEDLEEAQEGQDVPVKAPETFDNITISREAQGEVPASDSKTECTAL

v16955, palivizumab (anti-RSV) negative control (antibody)
0%: all assays above
